# Assay results reported in paper PMC5076532, “The Vesicle Priming Factor CAPS Functions as a Homodimer via C2 Domain Interactions to Promote Regulated Vesicle Exocytosis*” (The Journal of Biological Chemistry, 2016).
# B1: CAPS-Myc-His (recombinant wild-type rat CAPS) (natural protein)
# chain: not shown
# notes: the CAPS ORF in pcDNA3.1 CAPS-Myc-His; the words 'full length' are used only for the antigen of the antibody; also called CAPS-1; CADPS; source: HEK293-FT, transfected (calcium phosphate), purified (nickel-nitrilotriacetic acid column)
# B2: CAPS(ΔC2)-Myc-His (natural protein)
# chain: not shown
# notes: CAPS, Rattus norvegicus, NP_037351.1; amino acids 400-516 deleted from the CAPS ORF, residue 399 directly fused to residue 517; also called ΔC2-CAPS; source: HEK293-FT, transfected, purified as Myc-His fusion protein
# B3: CAPS(G476E)-Myc-His (natural protein)
# chain: not shown
# notes: CAPS, Rattus norvegicus, NP_037351.1, point mutant made on pcDNA3.1 CAPS-Myc-His; also called counterpart of unc-31(e714); source: HEK293-FT, transfected, purified as Myc-His fusion protein
# Legend:
# [1] = target: the molecule itself; test: atomic force microscopy (volume analysis); 100 pM CAPS dried onto freshly cleaved mica
# [2] = target: the molecule itself; test: cell-based or functional assay
# [3] = target: the molecule itself; test: native gel or EMSA; BN-PAGE of 5 μg of purified protein incubated with 1.5 μg of PI(4,5)P2 (micelles) for 0-30 min
# [4] = target: the molecule itself; test: native gel or EMSA; blue native (BN-PAGE, 5-14% or 6-14%) or clear native (CN-PAGE, 6%, 4 °C) gels of purified soluble protein without lipid; Coomassie or Western blot (CAPS or Myc antibody); 20 mM HEPES, 10 mM NaCl, 10 mM imidazole, 5% glycerol, pH 7.4 for CN-PAGE
protein,measurement,setting,value
B1,stoichiometry N,[1],2
same,"Ca2+-dependent norepinephrine secretion from permeable PC12 cells: activity of bound CAPS-Myc-His (exclusively dimer) after wash, relative to added CAPS-Myc-His",[2],~50%
B2,binding result,[3],binds
B3,binding result,[4],binds
